*1 amine or outer side, *2 acyl side, *3 side chain or, on linkers, in order; H or OH if unused. Where a SMILES comes first, the peptide text is derived from it. Bridges are numbered along the chain shown (N, C = ends). Side-chain parts run from the residue outwards. [ ]: non-standard residue; d: D form. The star is where a group is joined. X1 = CC(C)(C)C(=O)CN1C(=O)[C@H](N*)CN(C2CCCCC2)c2ccccc21; DOTA = O=C(O)CN1CCN(CC(=O)O)CCN(CC(=O)*)CCN(CC(=O)O)CC1; 3Abz = Nc1cccc(C(=O)O)c1; CO = O=C([*:1])[*:2]
Assay: in vivo
Conditions: BALB/c nude, mouse, in vivo, iv, total radioactivity
Method in brief: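 Tissue uptake given as % ID and % ID/g from γ counting of organs taken 4, 24 and 72 h after injection into BALB/c nude mice carrying subcutaneous AR42J xenografts (0.05-0.50 g). Tracers were ^177Lu-labelled at 95° C for 15 min in pH 4.5 NaOAc buffer and used neat or diluted in PBS containing 3 mg/mL ascorbate.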

## C[C@@H](O)[C@H](NC(=O)[C@@H]1CSSC[C@H](NC(=O)[C@@H](Cc2ccccc2)NC(=O)[C@H](CCCCNC(=O)c2cccc(NC(=O)N[C@@H]3CN(C4CCCCC4)c4ccccc4N(CC(=O)C(C)(C)C)C3=O)c2)NC(=O)[C@H](CCCNC(=N)N)NC(=O)CN2CCN(CC(=O)O)CCN(CC(=O)O)CCN(CC(=O)O)CC2)C(=O)N[C@@H](Cc2ccc(O)cc2)C(=O)N[C@H](Cc2c[nH]c3ccccc23)C(=O)N[C@@H](CCCCN)C(=O)N[C@@H]([C@@H](C)O)C(=O)N1)C(=O)O [Compound I-62, DOTA-R-K(Z360)-f[CYwKTC]T-OH] ({DOTA}-RK([3Abz-CO-X1])[dF]CY[dW]KTCT-OH; disulfide 4-9)
T/K Tumor/Kidney ratio
  tissue to tissue ratio at 24 h: 0.7
T/L Tumor/Liver ratio
  tissue to tissue ratio at 24 h: 0.3
T/P Tumor/Pancreas ratio
  tissue to tissue ratio at 24 h: 6.1
T/Sp Tumor/Spleen ratio
  tissue to tissue ratio at 24 h: 13
T/St Tumor/Stomach ratio
  tissue to tissue ratio at 24 h: 6.4
Uptake Kidney
  tissue uptake at 24 h: 14.7 %ID/g
Uptake Liver
  tissue uptake at 24 h: 32.4 %ID/g
Uptake Pancreas
  tissue uptake at 24 h: 1.78 %ID/g
Uptake Spleen
  tissue uptake at 24 h: 0.82 %ID/g
Uptake Stomach
  tissue uptake at 24 h: 1.68 %ID/g
Uptake Tumor
  tissue uptake at 24 h: 10.8 %ID/g

## C[C@@H](O)[C@H](NC(=O)[C@@H]1CSSC[C@H](NC(=O)[C@@H](Cc2ccccc2)NC(=O)COCCOCCNC(=O)[C@H](CCCCNC(=O)CCC(C(=O)O)N2CCN(CC(=O)O)CCN(CC(=O)O)CCN(CC(=O)O)CC2)NC(=O)COCCOCCNC(=O)CC[C@H](NC(=O)CC[C@H](NC(=O)c2cccc(NC(=O)N[C@@H]3CN(C4CCCCC4)c4ccccc4N(CC(=O)C(C)(C)C)C3=O)c2)C(=O)O)C(=O)O)C(=O)N[C@@H](Cc2ccc(O)cc2)C(=O)N[C@H](Cc2c[nH]c3ccccc23)C(=O)N[C@@H](CCCCN)C(=O)N[C@@H]([C@@H](C)O)C(=O)N1)C(=O)O (stereo partly shown) [^177Lu-1-13, metal not drawn]
% ID/g Adrenal gland
  tissue uptake at 4 h: 3.6 %ID/g
  tissue uptake at 24 h: 0.81 %ID/g
  tissue uptake at 72 h: 0.73 %ID/g
% ID/g Blood
  tissue uptake at 4 h: 0.64 %ID/g
  tissue uptake at 24 h: 0.09 %ID/g
  tissue uptake at 72 h: 0.03 %ID/g
% ID/g Femur
  tissue uptake at 4 h: 0.21 %ID/g
  tissue uptake at 24 h: 0.27 %ID/g
  tissue uptake at 72 h: 0.14 %ID/g
% ID/g Heart
  tissue uptake at 4 h: 0.54 %ID/g
  tissue uptake at 24 h: 0.19 %ID/g
  tissue uptake at 72 h: 0.11 %ID/g
% ID/g Intestine
  tissue uptake at 4 h: 0.89 %ID/g
  tissue uptake at 24 h: 0.37 %ID/g
  tissue uptake at 72 h: 0.22 %ID/g
% ID/g Kidney
  tissue uptake at 4 h: 58.6 %ID/g
  tissue uptake at 24 h: 46.7 %ID/g
  tissue uptake at 72 h: 22.5 %ID/g
% ID/g Liver
  tissue uptake at 4 h: 0.79 %ID/g
  tissue uptake at 24 h: 1.21 %ID/g
  tissue uptake at 72 h: 0.52 %ID/g
% ID/g Lung
  tissue uptake at 4 h: 1.57 %ID/g
  tissue uptake at 24 h: 0.43 %ID/g
  tissue uptake at 72 h: 0.38 %ID/g
% ID/g Muscle
  tissue uptake at 4 h: 0.08 %ID/g
  tissue uptake at 24 h: 0.08 %ID/g
  tissue uptake at 72 h: 0.05 %ID/g
% ID/g Pancreas
  tissue uptake at 4 h: 1.59 %ID/g
  tissue uptake at 24 h: 1.21 %ID/g
  tissue uptake at 72 h: 0.91 %ID/g
% ID/g Spleen
  tissue uptake at 4 h: 0.43 %ID/g
  tissue uptake at 24 h: 0.47 %ID/g
  tissue uptake at 72 h: 0.64 %ID/g
% ID/g Stomach
  tissue uptake at 4 h: 2.23 %ID/g
  tissue uptake at 24 h: 2.19 %ID/g
  tissue uptake at 72 h: 1.95 %ID/g
% ID/g Tumor
  tissue uptake at 4 h: 14.6 %ID/g
  tissue uptake at 24 h: 14.8 %ID/g
  tissue uptake at 72 h: 6.83 %ID/g

## C[C@@H](O)[C@H](NC(=O)[C@@H]1CSSC[C@H](NC(=O)[C@@H](Cc2ccccc2)NC(=O)COCCOCCNC(=O)[C@H](CCCCNC(=O)CC[C@H](NC(=O)CNC(=O)c2cccc(NC(=O)N[C@@H]3CN(C4CCCCC4)c4ccccc4N(CC(=O)C(C)(C)C)C3=O)c2)C(=O)O)NC(=O)COCCOCCNC(=O)CC[C@H](NC(=O)CC[C@H](NC(=O)CN2CCN(CC(=O)O)CCN(CC(=O)O)CCN(CC(=O)O)CC2)C(=O)O)C(=O)O)C(=O)N[C@@H](Cc2ccc(O)cc2)C(=O)N[C@H](Cc2c[nH]c3ccccc23)C(=O)N[C@@H](CCCCN)C(=O)N[C@@H]([C@@H](C)O)C(=O)N1)C(=O)O [^177Lu-1-14, metal not drawn]
% ID/g Adrenal gland
  tissue uptake at 4 h: 3.55 %ID/g
  tissue uptake at 24 h: 2.72 %ID/g
  tissue uptake at 72 h: 1.44 %ID/g
% ID/g Blood
  tissue uptake at 4 h: 1.32 %ID/g
  tissue uptake at 24 h: 0.09 %ID/g
  tissue uptake at 72 h: 0.02 %ID/g
% ID/g Femur
  tissue uptake at 4 h: 0.49 %ID/g
  tissue uptake at 24 h: 0.4 %ID/g
  tissue uptake at 72 h: 0.31 %ID/g
% ID/g Heart
  tissue uptake at 4 h: 0.8 %ID/g
  tissue uptake at 24 h: 0.17 %ID/g
  tissue uptake at 72 h: 0.19 %ID/g
% ID/g Intestine
  tissue uptake at 4 h: 0.6 %ID/g
  tissue uptake at 24 h: 1.25 %ID/g
  tissue uptake at 72 h: 0.37 %ID/g
% ID/g Kidney
  tissue uptake at 4 h: 48.2 %ID/g
  tissue uptake at 24 h: 68.6 %ID/g
  tissue uptake at 72 h: 24.3 %ID/g
% ID/g Liver
  tissue uptake at 4 h: 3.31 %ID/g
  tissue uptake at 24 h: 2.24 %ID/g
  tissue uptake at 72 h: 1.28 %ID/g
% ID/g Lung
  tissue uptake at 4 h: 1.32 %ID/g
  tissue uptake at 24 h: 0.72 %ID/g
  tissue uptake at 72 h: 0.95 %ID/g
% ID/g Muscle
  tissue uptake at 4 h: 0.17 %ID/g
  tissue uptake at 24 h: 0.17 %ID/g
  tissue uptake at 72 h: 0.11 %ID/g
% ID/g Pancreas
  tissue uptake at 4 h: 2.11 %ID/g
  tissue uptake at 24 h: 3.37 %ID/g
  tissue uptake at 72 h: 3.14 %ID/g
% ID/g Spleen
  tissue uptake at 4 h: 0.64 %ID/g
  tissue uptake at 24 h: 0.56 %ID/g
  tissue uptake at 72 h: 2.17 %ID/g
% ID/g Stomach
  tissue uptake at 4 h: 3.68 %ID/g
  tissue uptake at 24 h: 2.25 %ID/g
  tissue uptake at 72 h: 2.99 %ID/g
% ID/g Tumor
  tissue uptake at 4 h: 30.9 %ID/g
  tissue uptake at 24 h: 14.9 %ID/g
  tissue uptake at 72 h: 18 %ID/g

## C[C@@H](O)[C@H](NC(=O)[C@@H]1CSSC[C@H](NC(=O)[C@@H](Cc2ccccc2)NC(=O)CN2CCN(CC(=O)O)CCN(CC(=O)O)CCN(CC(=O)O)CC2)C(=O)N[C@@H](Cc2ccc(O)cc2)C(=O)N[C@H](Cc2c[nH]c3ccccc23)C(=O)N[C@@H](CCCCN)C(=O)N[C@@H]([C@@H](C)O)C(=O)N1)C(=O)O [^177Lu-C-1, metal not drawn, reference compound]
% ID/g Adrenal gland
  tissue uptake at 4 h: 8.73 %ID/g
  tissue uptake at 24 h: 0.15 %ID/g
  tissue uptake at 72 h: 0.13 %ID/g
% ID/g Blood
  tissue uptake at 4 h: 0.02 %ID/g
  tissue uptake at 24 h: 0.01 %ID/g
  tissue uptake at 72 h: 0.01 %ID/g
% ID/g Femur
  tissue uptake at 4 h: 0.07 %ID/g
  tissue uptake at 24 h: 0.11 %ID/g
  tissue uptake at 72 h: 0.08 %ID/g
% ID/g Heart
  tissue uptake at 4 h: 0.06 %ID/g
  tissue uptake at 24 h: 0.05 %ID/g
  tissue uptake at 72 h: 0.04 %ID/g
% ID/g Intestine
  tissue uptake at 4 h: 0.2 %ID/g
  tissue uptake at 24 h: 0.46 %ID/g
  tissue uptake at 72 h: 0.11 %ID/g
% ID/g Kidney
  tissue uptake at 4 h: 3.88 %ID/g
  tissue uptake at 24 h: 1.21 %ID/g
% ID/g Liver
  tissue uptake at 4 h: 0.1 %ID/g
  tissue uptake at 24 h: 0.07 %ID/g
  tissue uptake at 72 h: 0.06 %ID/g
% ID/g Lung
  tissue uptake at 4 h: 0.63 %ID/g
  tissue uptake at 24 h: 0.32 %ID/g
  tissue uptake at 72 h: 0.21 %ID/g
% ID/g Muscle
  tissue uptake at 4 h: 0.01 %ID/g
  tissue uptake at 24 h: 0.02 %ID/g
  tissue uptake at 72 h: 0.01 %ID/g
% ID/g Pancreas
  tissue uptake at 4 h: 0.02 %ID/g
  tissue uptake at 24 h: 0.16 %ID/g
  tissue uptake at 72 h: 0.03 %ID/g
% ID/g Spleen
  tissue uptake at 4 h: 0.08 %ID/g
  tissue uptake at 24 h: 0.04 %ID/g
  tissue uptake at 72 h: 0.05 %ID/g
% ID/g Stomach
  tissue uptake at 4 h: 1.18 %ID/g
  tissue uptake at 24 h: 0.59 %ID/g
  tissue uptake at 72 h: 0.21 %ID/g
% ID/g Tumor
  tissue uptake at 4 h: 14 %ID/g
  tissue uptake at 24 h: 5.76 %ID/g
  tissue uptake at 72 h: 4.33 %ID/g

Source: patent publication US20260248972A1, “DUAL RECEPTOR TARGETING RADIOLIGANDS AND USES THEREOF RELATED APPLICATIONS” (priority 2022, published 2026)
